Data on 1 substance can be found in paper PMC13140691.

This test has as its target GST-LcGLO1 (litchi).

Take His-PlAvh133 (natural protein): the enzymatic activity of His-LcGLO1 in vitro (glycolate oxidase assay, H2O2 read at 520 nm, 30°C) with His-PlAvh133 added came to 40 % inhibition.
